{"source": "patent US20240382604A1", "about": "(GUANGZHOU MEDICAL UNIVERSITY, published 2024)", "binders": {"B1": {"name": "peptide-drug conjugate RG-17 (polypeptide SRLRGG linked with GRL0617) (peptide)", "peptide": "SRLRGG-GRL0617"}}, "target": "papain-like protease (PLpro), enzyme used in the in vitro enzyme assay (SARS-CoV-2, UniProt P0DTD1 1564-1878, limits assumed)", "test": "cell-based or functional assay", "note": "No end group written: not given here.", "data": [{"binder": "B1", "values": [{"measurement": "IC50, inhibition of PLpro activity in the in vitro enzyme assay (hydrolysis of substrate RLRGG-AMC, AMC fluorescence)", "value": 1400, "unit": "nM"}]}]}
